Assay results reported in publication PMC4456301 (Structure (London, England : 1993), 2015).

Target: the molecule itself
Assay: AUC

B1: R135_50, a variant of Mimivirus R135 lacking the first 50 amino acids (domain or fragment)
chain: TKDNLTGDIVIIGAGAAGSLLAHYLARFSNMKIILLEAGHSHFNDPVVTDPMGFFGKYNPPNENISMSQNPSYSWQGAQEPNTGAYGNRPIIAHGMGFGGSTMINRLNLVVGGRTVFDNDWPVGWKYDDVKNYFRRVLVDINPVRDNTKASITSVALDALRIIAEQQIASGEPVDFLLNKATGNVPNVEKTTPDAVPLNLNDYEGVNSVVAFSSFYMGVNQLSDGNYIRKYAGNTYLNRNYVDENGRGIGKFSGLRVVSDAVVDRIIFKGNRAVGVNYIDREGIMHYVKVNKEVVVTSGAFYTPTILQRSGIGDFTYLSSIGVKNLVYNNPLVGTGLKNHYSPVTITRVHGEPSEVSRFLSNMAANPTNMGFKGLAELGFHRLDPNKPANANTVTYRKYQLMMTAGVGIPAEQQYLSGLSPSSNNLFTLIADDIRFAPEGYIKIGTPNIPRDVPKIFFNTFVTYTPTSAPADQQWPIAQKTLAPLISALLGYDIIYQTLMSMNQTARDSGFQVSLEMVYPLNDLIYKLHNGLATYGANWWHYFVPTLVGDDTPAGREFADTLSKLSYYPRVGAHLDSHQGCSCSIGRTVDSNLKVIGTQNVRVADLSAAAFPPGGNTWATASMIGARAVDLILGFPYLRDLPVNDVPILNVN
stoichiometry N: 2
